Target: BclXL_FL, full-length human BclXL (residues 1–233) (human), Q07817
Assay: ITC

BclXL_FL, full-length human BclXL (residues 1–233) (human), Q07817, sequence (Q07817 whole entry, the tested form may be a part): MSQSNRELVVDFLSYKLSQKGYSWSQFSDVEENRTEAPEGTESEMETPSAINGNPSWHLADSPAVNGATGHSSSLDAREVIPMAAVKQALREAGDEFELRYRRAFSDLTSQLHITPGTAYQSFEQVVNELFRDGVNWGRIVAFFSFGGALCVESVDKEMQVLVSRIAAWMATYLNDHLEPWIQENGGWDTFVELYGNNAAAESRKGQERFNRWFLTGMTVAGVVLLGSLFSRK

- Kd: 9.97 µM
- dH: -18.7 kcal/mol
Binder: DIIRNIARHLAQVGDSMDRS (modifications not checked) [Bid_BH3 peptide (20-mer spanning the BH3 domain of human Bid)]

From publication PMC3268818
